# Source: publication PMC11151596, “Improving the enzymatic activity and stability of N-carbamoyl hydrolase using deep learning approach” (Microbial Cell Factories, 2024)
# B1: DCase (N-carbamoyl-D-amino acid amidohydrolase, EC 3.5.1.77; N-carbamoyl hydrolase) (Agrobacterium sp. KNK712) (protein)
# chain: MTRQMILAVGQQGPIARAETREQVVVRLLDMLTKAASRGANFIVFPELALTTFFPRWHFTDEAELDSFYETEMPGPVVRPLFEKAAELGIGFNLGYAELVVEGGVKRRFNTSILVDKSGKIVGKYRKIHLPGHKEYEAYRPFQHLEKRYFEPGDLGFPVYDVDAAKMGMFICNDRRWPEAWRVMGLRGAEIICGGYNTPTHNPPVPQHDHLTSFHHLLSMQAGSYQNGAWSAAAGKVGMEENCMLLGHSCIVAPTGEIVALTTTLEDEVITAAVDLDRCRELREHIFNFKQHRQPQHYGLIAEL
# notes: pET-28a(+)-Case, N- and C-terminal His6 tags, expressed in E. coli BL21(DE3), Ni-NTA purified, about 37 kDa
# Substrate: NC(=O)NC(C(=O)O)c1ccc(O)cc1
# Test: HPLC of D-HPG formed, double reciprocal plot
# Type: biochemical, Agrobacterium sp. KNK712
# Conditions: 50 mM Tris-HCl pH 7.5, 65 °C, 0.1-10.0 mM CpHPG
# Text: HPLC of D-HPG formed, double reciprocal plot on DCase (N-carbamoyl-D-amino acid amidohydrolase, EC 3.5.1.77; N-carbamoyl hydrolase)
protein,measurement,value
B1,Km,2590 ± 220 µM
same,kcat,7.98 ± 0.212 s⁻¹
same,kcat/Km,3080 ± 218 M⁻¹ s⁻¹
